Values of other authors in article PMC4023866.

Molecular target: GAPDH (Homo sapiens) (UniProt P04406)

## NleB (from UniProt B7UI21)
  Kd: 36 µM
